Results reported in the supplement of paper PMC9170038.

Tested on: MS2 coat protein
Test: apparent KD of MS2 coat protein; higher = weaker reporter binding
Details: Eterna round: R107
Description: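 RNA-MaP round R107: designed RNA switches with theophylline, tryptophan, arginine or FMN aptamers are transcribed on-chip within common flanks. They are titrated with SNAP-549-labelled MS2 coat protein in RNA-MaP buffer (100 mM Tris pH 7.5, 80 mM KCl, 4 mM MgCl2), without ligand or with the indicated ligand. Median apparent KD per design.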

[1] = input ligand: theophylline 20 uM
[2] = input ligand: theophylline 2 mM
[3] = input ligand: tryptophan 2.4 mM

Sequence	apparent KD of MS2 coat protein (input ligand: arginine 13.2 mM) [nM]	apparent KD of MS2 coat protein (input ligand: none) [nM]	apparent KD of MS2 coat protein [1] [nM]	apparent KD of MS2 coat protein [2] [nM]	apparent KD of MS2 coat protein [3] [nM]
UGUAUGGACUGAAGGAGCGGUAGAUAACCUGAGGAUCACCCGGGUAAUAAAGGCGAAAGCCACCAGGUAGGUCGCAGUCCAUACU	93.3	206	173	321	262
AACACACCAAAUGAUACCAGCUACAACAUGAUACAAAACCACAUGAGGAUCACCCAUGUAAGCCCUUGGCAGCAUACUACUGUAA [theeternabot_exclusion_MS2_Theo_B_40]	16.9		24.2		18.7
AUACCGAGUGAGUCGUGUUUCUUUUCAGAUACCAGACUUUUCGUUGUCCCUUGGCAGCUGUUUUACAUGAGGAUCACCCAUGUUG [#28 Exclusion-TheophyllineA]	16.3		18.1		15.2
UGCAUUAUACAUGGAUCACCCAUGUAGACACGAGGACCGGUACGGCCGCCACUCGGAAGAGGGAACAUGAGGAUCACCCAUGUGA [Try A SS t1]	25.6		73.1	55	
CGGGACAUGAGGAUCACCCAUGUACGAUCCCGAGGACCGGUACGGCCGCCACUCGCUAGCGUUGAGUCGCGACUUUCAUAACUAA [theeternabot_sameState_MS2_Trp_A_27]	36.7		92.2	83.2	
GCAUGUUGGUGGUUUCUGCGAAGGCGGAAUCGAGGACCGGUACGGCCGCCACUCGGCGACAUGAGGAUCACCCAUGUGGUUAGGA [Exclusion - Tryptophan A (Freestyle 9)]	42.1	462	220	461	208
UAUUUGGUGCGCGAGUGUUGGAUAAUUGAUACCAGUGAAGAAGAGCGCCCUUGGCAGCGAAUCCUAACAUGAGGAUCACCCAUGU [5.T]	35.9		55.3		35.4
CUUAUAUAUAGAAGGAGCGACAUGAGGAUCACCCAUGUCUACCACGUCGAAAGACGCUCAUGUCAGGUAGGUCGCUAUAUAUAAG [Astros-Eli-mod3]	42.5	152	138	172	120
CAAUAAGUACCGGUCCUCAGAUCCUCAUGACGAGGACCGGUACGGCCGCCACUCGAAACAUGAGGAUCACCCAUGUAAUAAUAAU [Brourdmod01]	15.3		31.4	24.2	
AUCCAUAGCCGAAGGAGCGCAGUAGGAUGACAUGAGGAUCACCCAUGUGUGUGAUGUGGAUUGCAGGUAGGUCGCGGAGUGGGUU [Exclusion - Arginine B (Freestyle 7)]	101	65.2	124	134	79.7
UUAUAUAUGCGAAGGAGCGGGAAAUAUAUAUAUAUAAUCCUAACAUGAGGAUCACCCAUGUCCCAGGUAGGUCGCGCAUAUAUAG [12.C]	38	79	117	76.6	53.4
UCGUGUGUUUCGGAUACCAGUGAAAUCGAUACAUGAGGAUCACCCAUGUGAGAGGAUGUACACCCUUGGCAGCUGGCUGUAGCGG [yyzmullin]	32.1		56.9		44.3
UUCGUUGGCGAUCUGGGUUUACCAGAUCGGCGAGGACCGGUACGGCCGCCACUCGUGUUUUCUUUACAUGAGGAUCACCCAUGUU [SSTA #3]	16.9		25.3	25.5	
UUAUUUAUAUUAGAUACCAGUUUAAUGGCCGCAAAUCCUGACAUGAGGAUCACCCAUGUAAGCCCUUGGCAGCUGGUAUGGGUUU [XTheo B #26]	25.2		25.2		20.5
GCGACCCUGAGAUCCUGCGUAACGUGAACACGAGGACCGGUACGGCCGCCACUCGAGAGAACAUGAGGAUCACCCAUGUCUGAGC [e-trypA-0(N)]	16.2		28.4	26.4	
AGUUCCAGGUCGGCCGCCACUGGCAUGGCCGGUCCUCGGACUUACAUGAGGAUCACCCAUGUGAACAGGACCGGGACCGCAUGGG [Exclusion Tryptophan B GF 24]	26.1		46.1	57.2	
UAACAUGAGGAUCACCCAUGUUUAGAAGAACGAGGACCGGUACGGCCGCCACUCGAAAAGUGGAAGAAAAGAGGGAUAGAAUGAU [Same State Trp A GF1]	14		16	12.2	
ACAUGAGGAUCACCCAUGUAUGACUAUCCUCGAGGACCGGUACGGCCGCCACUCGAACGAGUGGCUCGCGAGUGCGCACUCGCGA [5' end]	11.7	13.3	16.6	11.3	10.3
AUAUUAAUCGGAAGGAGCGGUACAUGAGGAUCACCCAUGUGGUAAGCUAGCAGAUCCCGUUACCAGGUAGGUCGCCGAGUUAUGA [XArg-B17]	268	201	474	510	216
UGAUAUGUAGGAAGGAGCGCAUACUUCACAUGAGGAUCACCCAUGUCAAGACGUGAGUCAGUGCAGGUAGGUCGCCUAGUUAUGA [Same State - Arginine B (Freestyle 20)]	30.2	44.9	41	36.9	36
UGUAUGUGAUUUGAUACCAGACCAGCUGGUGGUGCAUGAGGAACACCCAUGCAGGUUUGGGUCCCUUGGCAGCAAAUCGCAUACU [SS Theo B #24 Ms19]	149		150	33	130
ACAUGAGGAUCACCCAUGUCAUGAGGUUCACGAGGACCGGUACGGCCGCCACUCGACAUGAGGGUCACCCAUGUGAGGAACACCC [mamullun]	117		278	579	
GAUCUUGCGGGCGCCCGCAAGGUUGCGGAUACCAGCGAGAUUAAUCGCCCUUGGCAGCCGAACAUGAGGAUCACCCAUGUCGGAC [Same State - Theophylline A Attempt #2 (HarryS)]	8.92		11.5		10.5
ACAUGAGGAUCACCCAUGUAAAUAACGGAAGGAGCGUGCAAAAGCACAGGUAGGUCGCCGAUAUAAAUAUUGGGUAAUAUAUUAU [ExyArgA#1]	25	34.2	41.5	28.2	28
UUAAUCAAUAUAGAAAACUAUAUUGCAGAAGGAGCGUGAUAAAACACAGGUAGGUCGCUGAAGGGAACAUGAGGAUCACCCAUGU [AstrosSSArgA#5]	24.8	23.4	32.5	26.3	26.2
UCGCUCUGGGUGGGAUCCGGAGAUGUGGAAGGAGCGCUGGUUACAGCAGGUAGGUCGCCAACGGACAUGAGGAUCACCCAUGUAC [Same State - Arginine A (Freestyle 16)]	53.3	41.3	49.4	39.5	36.2
AGCCCUGUACUAGAUACCAGCUACAUGAGGAUCACCCAUGUGCGUCAAGACUGACUGUGUGGCCCUUGGCAGCUGCUCGCAUGUA [Exclusion - Theophylline B (Freestyle 1)]	50.6		191		168
UAAUAUCACAUAUUAUGGGUGUAAUGUGAUACCAGCUAGGAAACUAGCCCUUGGCAGCACAUGAGGAUCACCCAUGUAAGCUGUA [(T1)'-(M)'-(T1)-(T2)-(M1)-(M2)-(T2)'_Design4_2/19/17]	29.1		123		68.9
GGCCGAUGGUGCGAUACCAGCUUGAGUGUACUGGCCAGGUACAUGAGGAUCACCCAUGUAAGCCCUUGGCAGCGCGUCAAAGGCC [#1 Exclusion - Theophylline B Attempt #20 (HarryS)]	7.09	11.3	17.6	24.2	10.5
